What was measured:
[1] = biological target: Fc gamma receptor Type IIIa, FcγRIIIa (F176) (human) (UniProt P08637); test: BLI
[2] = biological target: JS016-WT (wild-type control antibody); test: BLI

Chain of UniProt P08637 (P08637 17-254): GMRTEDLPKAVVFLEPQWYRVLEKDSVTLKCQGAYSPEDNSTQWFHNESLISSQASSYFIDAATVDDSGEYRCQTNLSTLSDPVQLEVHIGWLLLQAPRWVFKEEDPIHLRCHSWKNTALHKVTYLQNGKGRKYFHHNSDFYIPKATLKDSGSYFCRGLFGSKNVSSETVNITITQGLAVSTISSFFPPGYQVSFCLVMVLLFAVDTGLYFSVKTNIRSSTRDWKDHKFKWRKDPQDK

Substance | Kd [1] [nM] | Kd [2] [nM]
JS016-WT (wild-type control antibody) | 2000 | 
C1q (first subcomponent of the C1 complex) |  | 2.12
